According to patent US20070081998A1 (published 2007):

Key:
[1] = target: T1, biotinylated ADDL (bADDL) (UniProt P05067 672-713, N-terminal biotin); test: BIACORE, bADDL as antigen; column Fab
T1 construct: domain: Aβ1-42; Soluble oligomers of Aβ1-42; also called bADDLs; biotinylated high molecular weight ADDL

[2] = target: T1, biotinylated ADDL (bADDL); test: BIACORE, bADDL as antigen; column IgG1 #1
biotin-Aβ1-20 [3] = target: T2, biotin-Aβ1-20 (UniProt P05067 672-691, not fully specified; biotin (site not stated)); test: BIACORE
T2 construct: domain: Aβ1-20; BIACORE antigen standing for monomeric Aβ peptide; also called biotinylated-Aβ1-20
T2 peptide (looked up): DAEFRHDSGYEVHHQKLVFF

biotin-Aβ1-20 [4] = target: T2, biotin-Aβ1-20; test: BIACORE, Fab fragment against biotinylated-Aβ1-20
[5] = target: T1, biotinylated ADDL (bADDL); test: BIACORE, Fab fragment against bADDL
[6] = target: T1, biotinylated ADDL (bADDL); test: BIACORE, bADDL as antigen; column IgG1 #2

B1: Mouse-20C2 Fab (Fab, V domains shown)
VH: QVTLKESGPGILKPSQTLSLTCSLSGFSLSTSGMGVGWFRQPSGKGLEWLAHIWWDDDKSYNPSLKSRLTISKYTSRNQVFLTITSVDTADTATYYCARRQLGLRSIDAMDYWGQGTSVTVSS
VL: DVLMTQTPLSLPVSLGDQASISCRSSQSILHSNGNTYLEWYLQKPGQSPKLLIYKVSNRFSGVPDRFSGSGSGTDFTLKISRVEAEDLGVYYCFQGSLVPLTFGAGTKLELK
notes: Value in the Fab column of the row Mouse-20C2; also called murine 20C2
[1]
  Kd: 62000 pM

B2: Mouse-20C2 antibody (IgG1) (antibody, V domains shown)
VH: QVTLKESGPGILKPSQTLSLTCSLSGFSLSTSGMGVGWFRQPSGKGLEWLAHIWWDDDKSYNPSLKSRLTISKYTSRNQVFLTITSVDTADTATYYCARRQLGLRSIDAMDYWGQGTSVTVSS
VL: DVLMTQTPLSLPVSLGDQASISCRSSQSILHSNGNTYLEWYLQKPGQSPKLLIYKVSNRFSGVPDRFSGSGSGTDFTLKISRVEAEDLGVYYCFQGSLVPLTFGAGTKLELK
notes: value in the column IgG1 #1; also called murine 20C2
[2]
  Kd: 4100 pM

B3: clone A3 humanized by veneering, full IgG1 molecule (antibody, V domains shown)
VH: QVTLKESGPGLLKPTQTLTLTCTLSGFSLSTSGMGVGWFRQPPGKGLEWLAHIWWDDDKSYNPSLKSRLTISKDTSKNQVVLTITNVDPVDTATYYCARRQLGTRGTDAMDYWGQGTTVTVSS
VL: DVVMTQTPLSLPVTPGQPASISCRSSQSILHSNGNTYLEWYLQKPGQSPQLLIYKVSNRFSGVPDRFSGSGSGTDFTLKISRVEAEDVGVYYCLQTTRVPLTFGQGTKLEIK
notes: also called Hu20C2A3 IgG1/kappa version
biotin-Aβ1-20 [3]
  binding result: binds

B4: 20C2-5A Fab (Fab, V domains shown)
VH: QVTLKESGPALVKPTQTLTLTCTFSGFSLSTSGMGVGWIRQPPGKALEWLAHIWWDDDKSYNPSLKSRLTISKDTSKNQVVLTMTNMDPVDTATYYCARRQLGLRSIDAMDYWGQGTTVTVSS
VL: DVVMTQSPLSLPVTPGEPASISCRSSQSILHSNGNTYLEWYLQKPGQSPQLLIYKVSNRFSGVPDRFSGSGSGTDFTLKISRVEAEDVGVYYCFQSSFVPLTFGQGTKLEIKR
[1]
  Kd: 41000 pM

B5: 20C2-6A Fab (Fab, V domains shown)
VH: QVTLKESGPALVKPTQTLTLTCTFSGFSLSTSGMGVGWIRQPPGKALEWLAHIWWDDDKSYNPSLKSRLTISKDTSKNQVVLTMTNMDPVDTATYYCARRQLGLRSIDAMDYWGQGTTVTVSS
VL: DVVMTQSPLSLPVTPGEPASISCRSSQSILHSNGNTYLEWYLQKPGQSPQLLIYKVSNRFSGVPDRFSGSGSGTDFTLKISRVEAEDVGVYYCFQSSRVPLTFGQGTKLEIKR
[1]
  Kd: 42000 pM

B6: 4b-A7 Fab (Fab, V domains shown)
VH: QVTLKESGPALVKPTQTLTLTCTLSGFSLSTSGMGVGWIRQPPGKALEWLAHIWWDDDKSYNPSLKSRLTISKDTSKNQVVLTMTNMDPVDTATYYCARRQLGKLALDAMDYWGQGTTVTVSS
VL: DVVMTQSPLSLPVTPGEPASISCRSSQSILHSNGNTYLEWYLQKPGQSPQLLIYKVSNRFSGVPDRFSGSGSGTDFTLKISRVEAEDVGVYYCLQTTRVPLTFGQGTKLEIKR
biotin-Aβ1-20 [4]
  Kd: 1720 pM
[5]
  Kd: 376 pM

B7: 20C2-2A Fab (Fab, V domains shown)
VH: QVTLKESGPALVKPTQTLTLTCTFSGFSLSTSGMGVGWIRQPPGKALEWLAHIWWDDDKSYNPSLKSRLTISKDTSKNQVVLTMTNMDPVDTATYYCARRQLGLRSIDAMDYWGQGTTVTVSS
VL: DVVMTQSPLSLPVTPGEPASISCRSSQSILHSNGNTYLEWYLQKPGQSPQLLIYKVSNRFSGVPDRFSGSGSGTDFTLKISRVEAEDVGVYYCFQATRVPLTFGQGTKLEIKR
[1]
  Kd: 28000 pM

B8: 4b-H11 Fab (Fab, V domains shown)
VH: QVTLKESGPALVKPTQTLTLTCTLSGFSLSTSGMGVGWIRQPPGKALEWLAHIWWDDDKSYNPSLKSRLTISKDTSKNQVVLTMTNMDPVDTATYYCARRQLGRRSVDAMDYWGQGTTVTVSS
VL: DVVMTQSPLSLPVTPGEPASISCRSSQSILHSNGNTYLEWYLQKPGQSPQLLIYKVSNRFSGVPDRFSGSGSGTDFTLKISRVEAEDVGVYYCLQTTRVPLTFGQGTKLEIKR
biotin-Aβ1-20 [4]
  Kd: 1330 pM
[5]
  Kd: 1050 pM

B9: 20C2-6A IgG1 (antibody, V domains shown)
VH: QVTLKESGPALVKPTQTLTLTCTFSGFSLSTSGMGVGWIRQPPGKALEWLAHIWWDDDKSYNPSLKSRLTISKDTSKNQVVLTMTNMDPVDTATYYCARRQLGLRSIDAMDYWGQGTTVTVSS
VL: DVVMTQSPLSLPVTPGEPASISCRSSQSILHSNGNTYLEWYLQKPGQSPQLLIYKVSNRFSGVPDRFSGSGSGTDFTLKISRVEAEDVGVYYCFQSSRVPLTFGQGTKLEIK
notes: IgG1 humanized A version; also called 4P1-22
[6]
  Kd: 24 pM
[2]
  Kd: 4.3 pM

B10: 20C28B Fab (Fab, V domains shown)
VH: QVTLKESGPALVKPTQTLTLTCTLSGFSLSTSGMGVGWIRQPPGKALEWLAHIWWDDDKSYNPSLKSRLTISKDTSKNQVVLTMTNMDPVDTATYYCARRQLGLRSIDAMDYWGQGTTVTVSS
VL: DVVMTQSPLSLPVTPGEPASISCRSSQSILHSNGNTYLEWYLQKPGQSPQLLIYKVSNRFSGVPDRFSGSGSGTDFTLKISRVEAEDVGVYYCLQTTRVPLTFGQGTKLEIKR
biotin-Aβ1-20 [4]
  Kd: 1100 pM
[5]
  Kd: 1100 pM

B11: 4a-A3 Fab (Fab, V domains shown)
VH: QVTLKESGPALVKPTQTLTLTCTLSGFSLSTSGMGVGWIRQPPGKALEWLAHIWWDDDKSYNPSLKSRLTISKDTSKNQVVLTMTNMDPVDTATYYCARRQLGTRGTDAMDYWGQGTTVTVSS
VL: DVVMTQSPLSLPVTPGEPASISCRSSQSILHSNGNTYLEWYLQKPGQSPQLLIYKVSNRFSGVPDRFSGSGSGTDFTLKISRVEAEDVGVYYCLQTTRVPLTFGQGTKLEIKR
biotin-Aβ1-20 [4]
  Kd: 849 pM
[5]
  Kd: 82.3 pM

B12: 20C2-8B IgG1 (antibody, V domains shown)
VH: QVTLKESGPALVKPTQTLTLTCTLSGFSLSTSGMGVGWIRQPPGKALEWLAHIWWDDDKSYNPSLKSRLTISKDTSKNQVVLTMTNMDPVDTATYYCARRQLGLRSIDAMDYWGQGTTVTVSS
VL: DVVMTQSPLSLPVTPGEPASISCRSSQSILHSNGNTYLEWYLQKPGQSPQLLIYKVSNRFSGVPDRFSGSGSGTDFTLKISRVEAEDVGVYYCLQTTRVPLTFGQGTKLEIK
notes: IgG1 humanized B version; also called SJ-p2-39
[6]
  Kd: 0.8 pM
[2]
  Kd: 13 pM

B13: 20C2-5A IgG1 (antibody, V domains shown)
VH: QVTLKESGPALVKPTQTLTLTCTFSGFSLSTSGMGVGWIRQPPGKALEWLAHIWWDDDKSYNPSLKSRLTISKDTSKNQVVLTMTNMDPVDTATYYCARRQLGLRSIDAMDYWGQGTTVTVSS
VL: DVVMTQSPLSLPVTPGEPASISCRSSQSILHSNGNTYLEWYLQKPGQSPQLLIYKVSNRFSGVPDRFSGSGSGTDFTLKISRVEAEDVGVYYCFQSSFVPLTFGQGTKLEIK
notes: IgG1 humanized A version; also called SJ-p2-1F
[6]
  Kd: 68 pM
[2]
  Kd: 317 pM

B14: 20C2-6B IgG1 (antibody, V domains shown)
VH: QVTLKESGPALVKPTQTLTLTCTLSGFSLSTSGMGVGWIRQPPGKALEWLAHIWWDDDKSYNPSLKSRLTISKDTSKNQVVLTMTNMDPVDTATYYCARRQLGLRSIDAMDYWGQGTTVTVSS
VL: DVVMTQSPLSLPVTPGEPASISCRSSQSILHSNGNTYLEWYLQKPGQSPQLLIYKVSNRFSGVPDRFSGSGSGTDFTLKISRVEAEDVGVYYCFQSSRVPLTFGQGTKLEIK
notes: IgG1 humanized B version; also called 4P1-22
[2]
  Kd: 53 pM

B15: 20C2-8A IgG1 (antibody, V domains shown)
VH: QVTLKESGPALVKPTQTLTLTCTFSGFSLSTSGMGVGWIRQPPGKALEWLAHIWWDDDKSYNPSLKSRLTISKDTSKNQVVLTMTNMDPVDTATYYCARRQLGLRSIDAMDYWGQGTTVTVSS
VL: DVVMTQSPLSLPVTPGEPASISCRSSQSILHSNGNTYLEWYLQKPGQSPQLLIYKVSNRFSGVPDRFSGSGSGTDFTLKISRVEAEDVGVYYCLQTTRVPLTFGQGTKLEIK
notes: IgG1 humanized A version; also called SJ-p2-39
[6]
  Kd: 0.7 pM
[2]
  Kd: 3 pM

B16: 20C2-2A IgG1 (antibody, V domains shown)
VH: QVTLKESGPALVKPTQTLTLTCTFSGFSLSTSGMGVGWIRQPPGKALEWLAHIWWDDDKSYNPSLKSRLTISKDTSKNQVVLTMTNMDPVDTATYYCARRQLGLRSIDAMDYWGQGTTVTVSS
VL: DVVMTQSPLSLPVTPGEPASISCRSSQSILHSNGNTYLEWYLQKPGQSPQLLIYKVSNRFSGVPDRFSGSGSGTDFTLKISRVEAEDVGVYYCFQATRVPLTFGQGTKLEIK
notes: IgG1 humanized A version; also called SJ-p1-18
[6]
  Kd: 0.3 pM
[2]
  Kd: 15 pM

B17: 20C2-3A IgG1 (antibody, V domains shown)
VH: QVTLKESGPALVKPTQTLTLTCTFSGFSLSTSGMGVGWIRQPPGKALEWLAHIWWDDDKSYNPSLKSRLTISKDTSKNQVVLTMTNMDPVDTATYYCARRQLGLRSIDAMDYWGQGTTVTVSS
VL: DVVMTQSPLSLPVTPGEPASISCRSSQSILHSNGNTYLEWYLQKPGQSPQLLIYKVSNRFSGVPDRFSGSGSGTDFTLKISRVEAEDVGVYYCFQGSFIPGTFGQGTKLEIK
notes: IgG1 humanized A version; also called SJ-p3-16
[2]
  Kd: 3700 pM

B18: 20C2-24A IgG1 (antibody, V domains shown)
VH: QVTLKESGPALVKPTQTLTLTCTFSGFSLSTSGMGVGWIRQPPGKALEWLAHIWWDDDKSYNPSLKSRLTISKDTSKNQVVLTMTNMDPVDTATYYCARRQLGLRSIDAMDYWGQGTTVTVSS
VL: DVVMTQSPLSLPVTPGEPASISCRSSQSILHSNGNTYLEWYLQKPGQSPQLLIYKVSNRFSGVPDRFSGSGSGTDFTLKISRVEAEDVGVYYCGQTTLVPLTFGQGTKLEIK
notes: IgG1 humanized A version; also called SJ-p2-44
[2]
  Kd: 114 pM

B19: 20C2-1A IgG1 (antibody, V domains shown)
VH: QVTLKESGPALVKPTQTLTLTCTFSGFSLSTSGMGVGWIRQPPGKALEWLAHIWWDDDKSYNPSLKSRLTISKDTSKNQVVLTMTNMDPVDTATYYCARRQLGLRSIDAMDYWGQGTTVTVSS
VL: DVVMTQSPLSLPVTPGEPASISCRSSQSILHSNGNTYLEWYLQKPGQSPQLLIYKVSNRFSGVPDRFSGSGSGTDFTLKISRVEAEDVGVYYCFQASRVPLTFGQGTKLEIK
notes: IgG1 humanized A version; also called SJ-p2-60
[2]
  Kd: 75 pM
